In PMC2901339:
Where two headings read alike, the source gives them in different places. Blank lines part the entries; values can stand above or below the molecule they belong to.

Tests used:
[1] = biological target: coatomer protein I (COP-I), endogenous, HEK cells (human (endogenous in HEK-293)) (UniProt P53618); test: co-IP; lysates of HEK cells transfected with V5 tagged constructs, immunoprecipitated with anti COP I antibody, blot with anti V5 antibody
[2] = biological target: NF-R13E/R14E (N-terminally FLAG-tagged PLN R13E/R14E) (rabbit) (UniProt P61015); test: co-IP; lysates of transfected HEK cells, FLAG-tagged PLN constructs precipitated with anti-Flag antibody and Protein G-Sepharose, 4°C, 0.1% Triton-X100, blot with COP I antibody
[3] = biological target: NF-PLN RΔ14 (rabbit) (UniProt P61015); test: as above
[4] = biological target: coatomer protein I (COP-I), endogenous, HEK cells (human (endogenous in HEK-293)) (UniProt P53618); test: co-IP; lysates of HEK cells transfected with V5 tagged constructs, immunoprecipitated with anti COP I antibody, blot with anti V5 antibody; remark: listed apart in the source

- fold band intensity of the wild type over this mutant [1]: > 2 fold
Molecule: V5 tagged Sigma 1R R7E/R8E (from UniProt Q99720 1-223) (natural protein)

- fold reduction in band intensity against NF-PLN [2]: 5 fold
- fold reduction in band intensity against NF-PLN [3]: 5 fold
Molecule: coatomer protein I (COP-I), endogenous, HEK cells (from UniProt P53618 1-953) (complex)

- fold band intensity of the wild type over this mutant [4]: > 2 fold
B1: V5 tagged SR β R7E/R8E (natural protein)
chain: MASADSEEVADGGGAGGTFQPYLDTLRQELQQTDPTLLSVVVAVLAVLLTLVFWKLIRSRRSSQRAVLLVGLCDSGKTLLFVRLLTGLYRDTQTSITDSCAVYRVNNNRGNSLTLIDLPGHESLRLQFLERFKSSARAIVFVVDSAAFQREVKDVAEFLYQVLIDSMGLKNTPSFLIACNKQDIAMAKSAKLIQQQLEKELNTLRVTRSAAPSTLDSSSTAPAQLGKKGKEFEFSQLPLKVEFLECSAKGGRGDVGSADIQDLEKWLAKIA
